In paper PMC6347194, “Protein refolding based on high hydrostatic pressure and alkaline pH: Application on a recombinant dengue virus NS1 protein” (PLoS ONE, 2019):

Key:
SEC = target: the molecule itself; assay: SEC
[1] = target: the molecule itself; assay: SEC; Superdex 200 10/300, elution in 50 mM CAPS pH 11.0; supernatant of NS1-IBs subjected to 2.4 kbar/0.4 kbar at pH 11.0, before dialysis

B1: dengue virus (DENV) non-structural protein 1 (NS1), recombinant, refolded from inclusion bodies (natural protein)
chain: DSGCVVSWKNKELKCGSGIFITDNVHTWTEQYKFQPESPSKLASAIQKAHEEGICGIRSVTRLENLMWKQITPELNHILSENEVKLTIMTGDIKGIMQAGKRSLQPQPTELKYSWKTWGKAKMLSTESHNQTFLIDGPETAECPNTNRAWNSLEVEDYGFGVFTTNIWLKLREKQDVFCDSKLMSAAIKDNRAVHADMGYWIESALNDTWKIEKASFIEVKSCHWPKSHTLWSNGVLESEMIIPKNFAGPVSQHNYRPGYHTQTAGPWHLGKLEMDFDFCEGTTVVVTEDCGNRGPSLRTTTASGKLITEWCCRSCTLPPLRYRGEDGCWYGMEIRPLKEKEENLVNSLVTA
notes: also called DENV NS1
stoichiometry N (SEC): 3 | stoichiometry N [1]: 2
